From patent publication EP4786492A1
Blank lines part the entries; values can stand above or below the binder they belong to.

Assays:
[1] = molecular target: monkey DLL3 on CHO-K1-cyno DLL3 cells (cynomolgus monkey); experiment: FACS, CHO-K1-cyno DLL3 cells, 4 nM antibody
[2] = molecular target: monkey DLL3 on CHO-K1-cyno DLL3 cells (cynomolgus monkey); experiment: FACS, CHO-K1-cyno DLL3 cells, 0.00128 nM antibody
[3] = molecular target: monkey DLL3 on CHO-K1-cyno DLL3 cells (cynomolgus monkey); experiment: FACS, CHO-K1-cyno DLL3 cells, 0.16 nM antibody
[4] = molecular target: mouse DLL3 on CHO-K1-mDLL3 cells (mouse) (UniProt O88516); experiment: FACS, CHO-K1-mDLL3 cells, 0.0064 nM antibody
[5] = molecular target: human delta-like ligand 3 (DLL3) on SHP77 cells (human) (UniProt Q9NYJ7); experiment: FACS on SHP77 cells
[6] = molecular target: DLL3 endogenously expressed on NCI-H82 cells (UniProt Q9NYJ7); experiment: FACS on NCI-H82 cells; antibody 0.8 nM
[7] = molecular target: mouse DLL3 on CHO-K1-mDLL3 cells (mouse) (UniProt O88516); experiment: FACS, CHO-K1-mDLL3 cells, 0.00128 nM antibody
[8] = molecular target: DLL3 endogenously expressed on NCI-H82 cells (UniProt Q9NYJ7); experiment: FACS on NCI-H82 cells; antibody 0.032 nM
[9] = molecular target: DLL3 endogenously expressed on NCI-H82 cells (UniProt Q9NYJ7); experiment: FACS on NCI-H82 cells; antibody 100 nM
[10] = molecular target: human DLL3 protein expressed on CHO-K1 recombinant cells (human DLL3 extracellular segment fused to EpCAM transmembrane and intracellular regions) (human) (UniProt Q9NYJ7); experiment: FACS, CHO-K1 hDLL3 cells, 100 nM antibody
[11] = molecular target: human DLL3 protein expressed on CHO-K1 recombinant cells (human DLL3 extracellular segment fused to EpCAM transmembrane and intracellular regions) (human) (UniProt Q9NYJ7); experiment: FACS, CHO-K1 hDLL3 cells, 4 nM antibody
[12] = molecular target: human DLL3 protein expressed on CHO-K1 recombinant cells (human DLL3 extracellular segment fused to EpCAM transmembrane and intracellular regions) (human) (UniProt Q9NYJ7); experiment: FACS, CHO-K1 hDLL3 cells, 0.00128 nM antibody
[13] = molecular target: mouse DLL3 on CHO-K1-mDLL3 cells (mouse) (UniProt O88516); experiment: FACS, CHO-K1-mDLL3 cells, 4 nM antibody
[14] = molecular target: monkey DLL3 on CHO-K1-cyno DLL3 cells (cynomolgus monkey); experiment: FACS, CHO-K1-cyno DLL3 cells, 100 nM antibody
[15] = molecular target: DLL3 endogenously expressed on NCI-H82 cells (UniProt Q9NYJ7); experiment: FACS on NCI-H82 cells; antibody 20 nM
[16] = molecular target: human DLL3 protein expressed on CHO-K1 recombinant cells (human DLL3 extracellular segment fused to EpCAM transmembrane and intracellular regions) (human) (UniProt Q9NYJ7); experiment: FACS, CHO-K1 hDLL3 cells, 0.032 nM antibody
[17] = molecular target: human DLL3 protein (extracellular segment, His tag) (human) (UniProt Q9NYJ7); experiment: SPR (Biacore 8K), antibody captured on Protein A chip, DLL3 antigen in solution, 1:1 Langmuir fit
[18] = molecular target: mouse DLL3 on CHO-K1-mDLL3 cells (mouse) (UniProt O88516); experiment: FACS, CHO-K1-mDLL3 cells, 0.8 nM antibody
[19] = molecular target: mouse DLL3 on CHO-K1-mDLL3 cells (mouse) (UniProt O88516); experiment: FACS, CHO-K1-mDLL3 cells, 20 nM antibody
[20] = molecular target: human DLL1 protein (Acro, Cat. No. DL1-H52H8) (human) (UniProt O00548); experiment: ELISA, coated hDLL1; maximum over 0.1, 1, 10, 100 nM antibody
[21] = molecular target: human DLL3 protein expressed on CHO-K1 recombinant cells (human DLL3 extracellular segment fused to EpCAM transmembrane and intracellular regions) (human) (UniProt Q9NYJ7); experiment: FACS, CHO-K1 hDLL3 cells, 0.8 nM antibody
[22] = molecular target: DLL3 endogenously expressed on NCI-H82 cells (UniProt Q9NYJ7); experiment: FACS on NCI-H82 cells; antibody 0.0064 nM
[23] = molecular target: DLL3 endogenously expressed on NCI-H82 cells (UniProt Q9NYJ7); experiment: FACS on NCI-H82 cells; antibody 4 nM
[24] = molecular target: mouse DLL3 on CHO-K1-mDLL3 cells (mouse) (UniProt O88516); experiment: FACS, CHO-K1-mDLL3 cells, 0.032 nM antibody
[25] = molecular target: DLL3 endogenously expressed on NCI-H82 cells (UniProt Q9NYJ7); experiment: FACS on NCI-H82 cells; antibody 0.16 nM
[26] = molecular target: monkey DLL3 on CHO-K1-cyno DLL3 cells (cynomolgus monkey); experiment: FACS, CHO-K1-cyno DLL3 cells, 20 nM antibody
[27] = molecular target: mouse DLL3 on CHO-K1-mDLL3 cells (mouse) (UniProt O88516); experiment: FACS, CHO-K1-mDLL3 cells, 0.16 nM antibody
[28] = molecular target: monkey DLL3 on CHO-K1-cyno DLL3 cells (cynomolgus monkey); experiment: FACS, CHO-K1-cyno DLL3 cells, 0.8 nM antibody
[29] = molecular target: mouse DLL3 on CHO-K1-mDLL3 cells (mouse) (UniProt O88516); experiment: FACS, CHO-K1-mDLL3 cells, 100 nM antibody
[30] = molecular target: monkey DLL3 on CHO-K1-cyno DLL3 cells (cynomolgus monkey); experiment: FACS, CHO-K1-cyno DLL3 cells, 0.032 nM antibody
[31] = molecular target: monkey DLL3 on CHO-K1-cyno DLL3 cells (cynomolgus monkey); experiment: FACS, CHO-K1-cyno DLL3 cells, 0.0064 nM antibody
[32] = molecular target: human DLL3 protein expressed on CHO-K1 recombinant cells (human DLL3 extracellular segment fused to EpCAM transmembrane and intracellular regions) (human) (UniProt Q9NYJ7); experiment: FACS, CHO-K1 hDLL3 cells, 20 nM antibody
[33] = molecular target: human DLL3 protein expressed on CHO-K1 recombinant cells (human DLL3 extracellular segment fused to EpCAM transmembrane and intracellular regions) (human) (UniProt Q9NYJ7); experiment: FACS, CHO-K1 hDLL3 cells, 0.16 nM antibody
[34] = molecular target: DLL3 endogenously expressed on NCI-H82 cells (UniProt Q9NYJ7); experiment: FACS on NCI-H82 cells; antibody 0.00128 nM
[35] = molecular target: human DLL4 protein (Acro, Cat. No. DL4-H5227) (human) (UniProt Q9NR61); experiment: ELISA, coated hDLL4; maximum over 0.1, 1, 10, 100 nM antibody
[36] = molecular target: human DLL3 protein expressed on CHO-K1 recombinant cells (human DLL3 extracellular segment fused to EpCAM transmembrane and intracellular regions) (human) (UniProt Q9NYJ7); experiment: FACS, CHO-K1 hDLL3 cells, 0.0064 nM antibody

Sequence of mouse DLL3 on CHO-K1-mDLL3 cells (mouse) (O88516 other isoform, or with tags, fused parts or gaps limits assumed): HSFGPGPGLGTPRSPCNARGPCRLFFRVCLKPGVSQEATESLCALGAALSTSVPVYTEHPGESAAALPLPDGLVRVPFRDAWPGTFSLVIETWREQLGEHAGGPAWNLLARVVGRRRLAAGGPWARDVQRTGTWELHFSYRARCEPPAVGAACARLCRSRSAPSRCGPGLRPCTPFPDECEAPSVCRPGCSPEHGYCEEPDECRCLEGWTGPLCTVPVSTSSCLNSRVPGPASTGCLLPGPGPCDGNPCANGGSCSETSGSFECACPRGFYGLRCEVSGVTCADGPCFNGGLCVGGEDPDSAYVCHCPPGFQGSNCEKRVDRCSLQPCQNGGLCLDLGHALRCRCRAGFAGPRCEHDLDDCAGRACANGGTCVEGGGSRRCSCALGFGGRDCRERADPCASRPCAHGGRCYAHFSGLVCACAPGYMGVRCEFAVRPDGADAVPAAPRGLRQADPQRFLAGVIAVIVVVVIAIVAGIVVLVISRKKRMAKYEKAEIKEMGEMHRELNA
Sequence of human delta-like ligand 3 (DLL3) on SHP77 cells (human) (Q9NYJ7 27-618, stated change not applied): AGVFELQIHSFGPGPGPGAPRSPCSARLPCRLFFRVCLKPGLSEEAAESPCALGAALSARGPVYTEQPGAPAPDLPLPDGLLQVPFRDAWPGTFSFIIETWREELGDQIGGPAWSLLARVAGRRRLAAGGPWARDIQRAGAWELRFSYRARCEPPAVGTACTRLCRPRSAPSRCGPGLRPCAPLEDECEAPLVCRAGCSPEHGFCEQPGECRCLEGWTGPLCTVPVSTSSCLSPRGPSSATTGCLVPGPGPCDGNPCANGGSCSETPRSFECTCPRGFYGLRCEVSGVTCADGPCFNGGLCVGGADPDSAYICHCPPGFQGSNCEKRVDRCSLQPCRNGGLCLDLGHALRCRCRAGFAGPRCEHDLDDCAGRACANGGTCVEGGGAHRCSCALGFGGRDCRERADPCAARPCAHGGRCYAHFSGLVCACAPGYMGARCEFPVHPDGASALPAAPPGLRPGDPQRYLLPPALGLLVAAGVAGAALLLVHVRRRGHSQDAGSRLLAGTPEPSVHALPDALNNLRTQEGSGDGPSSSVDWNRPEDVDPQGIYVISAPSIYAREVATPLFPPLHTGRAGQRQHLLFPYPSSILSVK
Sequence of DLL3 endogenously expressed on NCI-H82 cells (Q9NYJ7 27-618): as the sequence (Q9NYJ7 27-618, stated change not applied) above
Sequence of human DLL3 protein expressed on CHO-K1 recombinant cells (human DLL3 extracellular segment fused to EpCAM transmembrane and intracellular regions) (human) (Q9NYJ7 other isoform, or with tags, fused parts or gaps limits assumed): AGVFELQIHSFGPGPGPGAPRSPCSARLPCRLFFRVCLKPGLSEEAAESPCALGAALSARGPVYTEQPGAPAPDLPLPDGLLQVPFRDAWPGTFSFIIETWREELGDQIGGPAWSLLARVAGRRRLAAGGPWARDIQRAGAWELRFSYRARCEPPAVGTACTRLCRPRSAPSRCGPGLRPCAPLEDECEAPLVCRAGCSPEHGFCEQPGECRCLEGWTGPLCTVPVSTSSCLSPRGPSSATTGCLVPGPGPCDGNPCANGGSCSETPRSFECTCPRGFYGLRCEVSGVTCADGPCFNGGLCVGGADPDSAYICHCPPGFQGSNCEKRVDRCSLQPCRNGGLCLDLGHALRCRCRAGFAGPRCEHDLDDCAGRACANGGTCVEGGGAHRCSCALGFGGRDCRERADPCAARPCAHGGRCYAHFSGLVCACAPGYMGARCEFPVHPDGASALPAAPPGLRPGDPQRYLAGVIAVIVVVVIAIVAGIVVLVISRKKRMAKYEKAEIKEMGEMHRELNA
Sequence of human DLL3 protein (extracellular segment, His tag) (human) (Q9NYJ7 27-492): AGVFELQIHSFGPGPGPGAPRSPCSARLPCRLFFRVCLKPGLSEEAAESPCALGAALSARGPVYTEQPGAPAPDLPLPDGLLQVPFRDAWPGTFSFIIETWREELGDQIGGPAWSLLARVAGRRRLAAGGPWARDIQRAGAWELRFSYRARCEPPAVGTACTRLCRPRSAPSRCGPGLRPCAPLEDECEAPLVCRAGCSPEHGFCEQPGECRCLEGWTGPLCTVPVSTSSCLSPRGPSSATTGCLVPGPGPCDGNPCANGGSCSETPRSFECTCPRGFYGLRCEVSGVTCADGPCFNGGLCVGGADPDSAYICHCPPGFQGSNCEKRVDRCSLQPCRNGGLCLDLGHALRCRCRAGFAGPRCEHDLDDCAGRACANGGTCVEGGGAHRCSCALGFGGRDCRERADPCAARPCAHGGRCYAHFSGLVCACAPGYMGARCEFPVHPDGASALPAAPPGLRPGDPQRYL
Sequence of monkey DLL3 on CHO-K1-cyno DLL3 cells (cynomolgus monkey) (chain, as listed by the source limits assumed): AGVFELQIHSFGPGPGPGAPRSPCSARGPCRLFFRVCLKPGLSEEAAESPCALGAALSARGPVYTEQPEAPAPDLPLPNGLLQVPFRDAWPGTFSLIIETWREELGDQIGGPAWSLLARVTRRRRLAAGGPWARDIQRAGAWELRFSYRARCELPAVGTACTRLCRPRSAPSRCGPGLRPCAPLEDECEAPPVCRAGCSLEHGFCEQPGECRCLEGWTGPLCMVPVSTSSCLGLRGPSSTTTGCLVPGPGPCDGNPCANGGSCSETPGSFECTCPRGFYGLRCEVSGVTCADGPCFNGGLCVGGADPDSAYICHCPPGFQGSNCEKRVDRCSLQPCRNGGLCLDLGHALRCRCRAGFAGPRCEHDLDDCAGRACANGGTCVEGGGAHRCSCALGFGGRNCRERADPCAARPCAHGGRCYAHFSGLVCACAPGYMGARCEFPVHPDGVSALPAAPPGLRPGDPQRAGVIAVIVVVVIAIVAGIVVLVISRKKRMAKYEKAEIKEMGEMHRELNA
Sequence of human DLL4 protein (Acro, Cat. No. DL4-H5227) (human) (Q9NR61 27-524 limits assumed): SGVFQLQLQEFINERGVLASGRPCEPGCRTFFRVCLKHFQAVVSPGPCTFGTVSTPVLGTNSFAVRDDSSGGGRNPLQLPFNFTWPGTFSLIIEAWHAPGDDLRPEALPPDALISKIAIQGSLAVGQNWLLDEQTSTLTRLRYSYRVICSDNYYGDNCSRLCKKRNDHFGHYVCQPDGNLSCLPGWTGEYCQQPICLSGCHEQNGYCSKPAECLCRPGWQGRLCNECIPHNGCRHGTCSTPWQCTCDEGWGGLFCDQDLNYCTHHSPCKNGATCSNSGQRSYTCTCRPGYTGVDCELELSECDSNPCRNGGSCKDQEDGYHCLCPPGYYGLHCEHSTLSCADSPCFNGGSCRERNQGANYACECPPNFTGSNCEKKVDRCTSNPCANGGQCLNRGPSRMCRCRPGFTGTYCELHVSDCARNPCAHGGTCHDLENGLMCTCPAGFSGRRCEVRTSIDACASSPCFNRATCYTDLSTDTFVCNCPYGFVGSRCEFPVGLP
Sequence of human DLL1 protein (Acro, Cat. No. DL1-H52H8) (human) (O00548 18-540 limits assumed): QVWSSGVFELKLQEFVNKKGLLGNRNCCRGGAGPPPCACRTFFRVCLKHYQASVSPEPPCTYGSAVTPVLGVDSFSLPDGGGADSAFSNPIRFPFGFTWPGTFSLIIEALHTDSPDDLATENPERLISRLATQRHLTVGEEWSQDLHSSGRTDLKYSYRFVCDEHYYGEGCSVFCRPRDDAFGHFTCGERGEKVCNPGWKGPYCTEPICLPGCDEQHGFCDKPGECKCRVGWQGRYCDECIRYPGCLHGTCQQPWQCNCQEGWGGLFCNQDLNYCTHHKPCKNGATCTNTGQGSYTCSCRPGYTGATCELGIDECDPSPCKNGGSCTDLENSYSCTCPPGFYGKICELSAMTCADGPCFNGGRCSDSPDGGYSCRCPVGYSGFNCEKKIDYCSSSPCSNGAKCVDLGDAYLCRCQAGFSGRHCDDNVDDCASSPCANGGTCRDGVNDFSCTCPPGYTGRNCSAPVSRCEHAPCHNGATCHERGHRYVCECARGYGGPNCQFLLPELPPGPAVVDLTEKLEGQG

- MFI [1]: 6820 MFI
- MFI [2]: 118 MFI
- MFI [3]: 1150 MFI
- MFI [4]: 130 MFI
- MFI at 0.00128 nM [5]: 101 MFI
- MFI at 0.0064 nM [5]: 114 MFI
- MFI at 0.032 nM [5]: 173 MFI
- MFI at 0.16 nM [5]: 361 MFI
- MFI at 0.8 nM [5]: 692 MFI
- MFI at 4 nM [5]: 821 MFI
- MFI at 20 nM [5]: 943 MFI
- MFI at 100 nM [5]: 1270 MFI
- MFI [6]: 913
- MFI [7]: 118 MFI
- MFI [8]: 211
- MFI [9]: 1550
- MFI [10]: 12200 MFI
- MFI [11]: 11200 MFI
- MFI [12]: 120 MFI
- MFI [13]: 1260 MFI
- MFI [14]: 7480 MFI
- MFI [15]: 1180
- MFI [16]: 265 MFI
- Kd [17]: 0.000116 nM
- koff [17]: 2.03e-07 s⁻¹
- kon [17]: 1.75e+06 M⁻¹ s⁻¹
- MFI [18]: 884 MFI
- MFI [19]: 1460 MFI
- Emax of OD450 nm binding value [20]: 0.49 OD450 nm
- MFI [21]: 4370 MFI
- MFI [22]: 133
- MFI [23]: 1050
- MFI [24]: 170 MFI
- MFI [25]: 469
- MFI [26]: 7330 MFI
- MFI [27]: 361 MFI
- MFI [28]: 4260 MFI
- MFI [29]: 1590 MFI
- MFI [30]: 352 MFI
- MFI [31]: 153 MFI
- MFI [32]: 12400 MFI
- MFI [33]: 861 MFI
- MFI [34]: 118
- Emax of OD450 nm binding value [35]: 0.64 OD450 nm
- MFI [36]: 144 MFI
B1: Hab015VL4VH6a-hFc (scFv, part only; not given: scFv linker and human IgG1 Fc, V domains shown, not shown: another chain or arm of the molecule; a dimerising Fc or GST; small tags and cut ends)
VL: NIVLTQSPATLSLSPGERATLSCKASENVGTYVSWFQQKPGQSPRLLIYGASNRYTGIPARFSGSGSGTDFTLTISSLEPEDFAVYYCGQFYSFPSTFGGGTKVEIK
VH: EVQLVESGGGLVKPGGSLRLSCAASGITFSNFWMNWVRQAPEKGLEWVGQIRLKSDDYATHYAESVKGRFTISREDSKNTVYLQMNSLKTEDTAVYYCTTGYYFDYWGQGTTVTVSS

- MFI [1]: 8590 MFI
- MFI [2]: 750 MFI
- MFI [3]: 5000 MFI
- MFI [4]: 187 MFI
- MFI at 0.00128 nM [5]: 208 MFI
- MFI at 0.0064 nM [5]: 275 MFI
- MFI at 0.032 nM [5]: 458 MFI
- MFI at 0.16 nM [5]: 938 MFI
- MFI at 0.8 nM [5]: 1310 MFI
- MFI at 4 nM [5]: 1410 MFI
- MFI at 20 nM [5]: 1600 MFI
- MFI at 100 nM [5]: 1890 MFI
- MFI [6]: 412
- MFI [7]: 126 MFI
- MFI [8]: 242
- MFI [9]: 626
- MFI [10]: 14300 MFI
- MFI [11]: 12700 MFI
- MFI [12]: 419 MFI
- MFI [13]: 615 MFI
- MFI [14]: 9720 MFI
- MFI [15]: 519
- MFI [16]: 1050 MFI
- Kd [17]: 0.568 nM
- koff [17]: 0.000221 s⁻¹
- kon [17]: 389000 M⁻¹ s⁻¹
- MFI [18]: 529 MFI
- MFI [19]: 627 MFI
- Emax of OD450 nm binding value [20]: 0.07 OD450 nm
- MFI [21]: 7270 MFI
- MFI [22]: 155
- MFI [23]: 291
- MFI [24]: 246 MFI
- MFI [25]: 367
- MFI [26]: 9060 MFI
- MFI [27]: 406 MFI
- MFI [28]: 7840 MFI
- MFI [29]: 589 MFI
- MFI [30]: 1730 MFI
- MFI [31]: 1380 MFI
- MFI [32]: 13600 MFI
- MFI [33]: 3100 MFI
- MFI [34]: 126
- Emax of OD450 nm binding value [35]: 0.15 OD450 nm
- MFI [36]: 716 MFI
B2: Hab006VL1VH4-hFc (scFv, part only; not given: VL-VH linker and human IgG1 Fc, V domains shown, not shown: another chain or arm of the molecule; a dimerising Fc or GST; small tags and cut ends)
VL: DIQMTQSPSSLSASVGDRVTITCRATKSISKYLAWYQQKPGKAPKLLIFSGSTLQSGVPSRFSGSGSGTDFTLTISSLQPEDFATYYCQQHHEYPYTFGGGTKVEIK
VH: EVQLVQSGAEVKKPGASVKVSCKASGYTFTSYWMHWVRQAPGQRLEWMGVIDPSDSLANYNQEFKGRVTLTVDTSSSTAYMELSSLRSEDTAVYYCARDSTVVAPMDYWGQGTTVTVSS
